# Laboratory results: the DeepSol protein solubility set
# Assay: soluble on expression in E. coli; label from the status in PepcDB or PDB records
row,Sequence,soluble on expression in E. coli
1,MKSLTVIILYSEREQILEESIQSIWKLNLLEIIILVPNDRSNLYEIAKKHKCHIVLMGKYSTYYDGYEASVKAAKGDVLLFVDSNFLLSTNEMQRFIEPIVTNQADVVLNKIDKLIEIGKCPNMDIVWRKMLNEILSRPDLKSNSILSLPYALTKEVVENIGFNYMEDIVLSHMKIVNQGWRINDQYAINTLSKDETIEEGGYLIKKELSKNEKEKVERYLRGIAKWIEKKGRRVGFTDAGKRRDIVQKLGECKRYPSYHQGWGMHSSIYDGKQLSVIIPVQNEEETIEQVILEARKIEPLEIIVVVNGSTDQTANIAKRLGVTIIEYNERLGHNVGRAIGALEATGDILLFIDGDFSVSGSNLHHFTKAVSAGVDIALNDLNPMLHPPFYVVDVVKYMLNLAYNRPELSNGSLVAIPHAMSRSCLDAIGWESLLCPSLAQVKAILQGYRVECVHYVDVVKPNRIRLMENVSHNGHPPAVLRIIGDHVEALSYLIEQLEMDGKGDLEHHHHHH,not soluble
2,GSGIIEFHVIGNSLTPKANRRVLLWLVGLQNVFSHQLPRMPKEYIARLVFDPKHKTLALIKDGRVIGGICFRMFPTQGFTEIVFCAVTSNEQVKGYGTHLMNHLKEYHIKHNILYFLTYADEYAIGYFKKQGFSKDIKVPKSRYLGYIKDYEGATLMECELNPRIPYT,soluble
3,MGSDKIHHHHHHMIVGFAGKLYKNYEKDGIELLKEVTDEALDIAGLNYADVDGIMANIGRGSFHGNRTYLNPPAQISEYFGIKPKIIEHVQYGGPSVLSMIYRAYKAIKAGDAETILCIQGGKISHLRDNHFQKTDIIDSPFDEYIKIYDQMSPISDYAMVAYRHSKLFGTTDEQRARIAVIQRYNASYNPKALFRNPITVEDVLKSRIVSYPLHLLEIVYPIDGFHVFVVSKRSSKSALRNIDILAYGEAHWPNPPAEWDDIIYTPTTESAKRASFDLNRVDAFQLYDSFTITVMLQMEDIGLVEKGKVGQFVESHDLSFKGDVPINTGGGSLNTGQPAYMSGGVILEEALLQLNDMANGHQVKGANVIFLNGIGWWSRRHSVTLVLGERK,not soluble
4,MGSDKIHHHHHHMIKVGQTTEVENFLSNHPEVEAIDVLISDLVGFARGKRIEKSSLEKIYSSGLNMPATIFSMNVLGETIEECGLGQDIGEPDMVCKPIANTLHMASWHDRPIAQVLMSMFNHDGTPFFADPRNILSNVVRQLAEINLYPVVAVELEFYLLDKNKDNKGNLQAPISPKTGKRDEHTQVYSVDTLNDYSALLDDINRVCIEQNVPADTAVAECAPGQFEINLKHEADPVAACDNAILLKRIIKTVADKHNFDATFMAKPYSNEAGSGMHVHASLLDECGNNVFADEHNDYNETLEHAIGGMLELMPASMPLLCPNVNSYRRFMPGYYVAMAKNWGVDNRTVALRLPRGHKNATRIEHRVSGADANPYLVMAVILASIHHGITNKIKPINPTVGNAFDDDCEALPLKLDRALAELEKDQILTSYLGEEFTKNYHTVKQKELEQFDMHISELEVKWYLSNS,not soluble
5,MRDHRPTATDELIQASKLKQIQEHAKAILLINRQLQDILPKGLKTQVRAANVRGGNLVLEAASAALKMKVDYERLHILTQLRQNGFGHLISIEVRVNPELYRQSKITSEDARAANPRPPLSEHAAHVLLAIADQASDKVKKRLQSLARLAKANQKDD,not soluble
6,GKLHEPYEIIVIDVPSEYQGNVTQLLATRKGLMQSMSTTPGSDWIRMEFRIPARGLIGFRTQFMTETRGTGIANSYSDGMDVWAGEIKGRAHGSLVADRSGQITAYALTQLADRGSFFVEPGTETYEGVV,not soluble
7,MSLGQHFLKDLKVAQDIADTVDTFPELPVLEVGPGMGVLTQFLVKKDRLVKVVEVDYESVAYLREAYPSLEDHIIEDDFLKMNLHRLFDGKPFVLTGNYPYNISSQIFFKMLENKDIIPCCTGMIQKEVAERIAAGPGSKTYGILSVLIQAWYKVEYLFTVSEHVFNPPPKVKSAVIRMTRNDTKELGCDEKLFKQVVKTTFNQRRKTLRNSIKPILGKDCPLTEDALFNKRPEQLSVEEFISLTNQVEEALKTATASEGHHHHHH,soluble
8,MRHTCPKVTLRQRAIRNGRISLYLDYYPAVRNPETMQMSRREYLGIYIYAHPKNEMEREFNMDMLNKAEAIRCIRVQSLINEEFGFLDRTKMKTDFLAYFLKMCRKKDQKWRIVYQHFYNYVQGHCTFGDITIELCQGFREYLLNAKQLKRKGKVSTNSASGYYSTFRGLLKIAYRDKWLRENINDFLDKIEAKEVKKEYLTLDEVKILAQTPCEHDVLKRASLFSCLTGLRISDILNLRWEDFTLAPDQGYCIRIRTQKTSTEATLPIS,not soluble
9,MGSDKIHHHHHHMDKGKSVKSTEKSVGMPPKTPKTDNNAHVDNEFLILQVNDAVFPIGSYTHSFGLETYIQQKKVTNKESALEYLKANLSSQFLYTEMLSLKLTYESALQQDLKKILGVEEVIMLSTSPMELRLANQKLGNRFIKTLQAMNELDMGEFFNAYAQKTKDPTHATSYGVFAASLGIELKKALRHYLYAQTSNMVINCVKSVPLSQNDGQKILLSLQSPFNQLIEKTLELDESHLCTASVQNDIKAMQHESLYSRLYMS,not soluble
10,QKKDTSNHFHVFVGDLSPEITTEDIKAAFAPFGRISDARVVKDMATGKSKGYGFVSFFNKWDAENAIQQMGGQWLGGRQIRTNWATRKPPAPKSTYESNTKQ,soluble
11,MTLTTTLTTGLALLLAAQALPAPASAAPAAVGSVTIGWADATHELIKITWTETTAAANTLTLHTDDPETAAVRFGTTTADQPNEYLVDPTQLGYTADPRHTSWILVSDGTATTARSVDFDRFHHAQRGAALSFAGDRVRWTAPADTSVDGTPGDPLDLPKAYTYQPMQRVDDDPVGNYECKDTELPATTERTGLVPNPGTAYDLFLTMTNEWGTADVGYLQVGTTQTVTADGPAATAYGATTTIKGHAEGTVMFEQGRPPVCDEVRVDLSNQPLTVQQRTSSTAPWTVVGTVRTTVNGDYTAVVKNPGHRQYRVVRPNTAAFESAWYGGTSGVITVRSLTRVVSAKFIQPVVRLGTRPQAYLWVDPAGTQKAALQFRNAAGAWQGVTYKTLYAGRGLVSFPWNRRGTTRFRWWVPASGGAESVVSPVFTVTVT,not soluble
12,MGSDKIHHHHHHMGKKYDVYGVGNALVDIEYEVSPELLQELKIDKGVMTLLDEDSQNHILENLKNLHCHKSCGGSAANTMVAISQLGGKAFYSCKVANDEFGDFYIEDLLNSQVDTNLKNGDRQSGITGKCLVLVTPDADRTMNTFLGITEKFSTQELVSSALADSEYIYIEGYLVTSPTAKEAAIKAREIAEKAGVKTAMSLSDYNMVKFFKDGLLDIIGPGLDLIFANESEALELADTQDFQVAVDKLKTLSKKFAITRGSKGSVVFDGQELIEIAAPQVKAIDTVGAGDMYAGAFLYGITQSMSYEEAGKLASTAASKIVTSYGPRLKTEELKALVSA,not soluble
13,MGSDKIHHHHHHMAARNDDKYRGDTENKGFWTIDFGRSPVIGTAIHDGHFIRSDIASLMALSPEQRLREEDPFTGEMIARLTNRLVVHHSRFEIDLNRAADQAIYLKPEQSWGLEVWSEEPSQDAVRHSLDFHADYYAMLESVLSSVERRHGPFVVLDVHSYNHRRQGAGEPPTAQAEAPDINIGTFSMDRSRWNDVVSAVGEHFASATIGGRRLDVRENVAFQGKGEQTRFIHERFAENGCAIAIEFKKFFMDEWTGEPDRRVVSDIRETIAALQPVLEECLRSR,not soluble
14,GPGSMLRPSSLCRVAFPVHRDTTKTPRLVKEVGSWLYKRETVESFRAWCKANNVRGSGNVKVVSTMHYARCLRAARHLRPGQAIITLPHTACFNFLVVAKEMYGVSGKGGTVSHNFPLEVNWMNYDERCSFLRSASMSELTTAGWMCRIASLEESRFTPYIHWLLEDTRGRDGVANGVSRERGEESGLVDHYFSEMATDACEDPEEFLENLFRSFAALHLRAVPIESAAIRLFLPGTNFFKAKVDEMFVPTLMPLIDAVPQLEDGLHNTAVEYFPFSDEETLLKQCKDLVLSEGGTNEMRELRRRCLAQEQGAGAFFALRALCPIEEGDYLYVRGVPKLGAPEQESMTVRVMEANRLLNNE,not soluble
15,MKVAIVGVSGAVGQEFLRVLDERNFPMDELVLFGSKRSAGTTYTFRGKQIEVKLLQHNDDFKGVDIAFTSAGAGTSKEFEKTITKYGAVMIDNSSAFRMDADVPLVVPEVNAADALERPRGVIANPNCTTIQMVVALKAIEQLSHIKTVHVSTYQAASGAGAAAMDELYEQYRQVLANEPVTVEKFAYQLAFNLIPQIDVFTENGYTKEEMKMYNETRKIMHSDVKVSATCVRVPALRAHSESIWVETERPISVEEAREAFAKGEGLVLQDNPAEKEYPMPLFLAGKDPVYVGRIRKDLTNENGLTFWIVGDQIKKGAALNAVQIAEYLIKVKNV,not soluble
16,MGSDKIHHHHHHMRGYFRADWTERVELSEHDIGELRFSLKNRLGEALLLTSQEDMLRYCRDWHGDVTSSAVAVIRPRSTKEVSDTVIACAELGLAIIPQGGNTGLVLGGIPDAPKHQVVLSLERMNAIRTIDSDDFSAVVEAGCILSEFKDAVQDKGMFFPLSLGAQGSCRIGGNVSTNAGGINVLRYGMTRELVLGLEVVLPDGTIWNGLSTLRKDNRGIDLKQLFIGAEGTLGIITAVAVKLYPNPEHVETALLGLNSLDDAIKLYRRARRECCDLMSAFEFMPPVAFTLAIEAIPDLKMPIAGDYPAYVLMEISGSGLVDTADLMGRFLEGVMEDGLVLDGVIASSRAQAQSLWLFREGMNEGQALRGSHMRTDISVPLSKLAAFVAEAEAELAEKLPECLAVSYGHVGDGNVHLNVLPPNGATLEEREAFIYKSKTLVNEVLDRYVGSISAEHGIGRLKRSDFESRLSDVQRRMITGLKNAFDPDLRMNPGCQITLQPDS,not soluble
17,PSTVSHFMAFNPKNDVLNQRTIREAISKSIDAKDIAGKSVNGLFQKNVQFVTKNNQQPHDYDMKAAERLLKSEGYHKNDDGIFEKNGKPLSFNLVIQTAEFPNWKDKAEKVQRQLKQAGIKLNVKTLDSQSYYDTLWTKKDYDLIFYRTYSDALMPYNFISSVFKNNDGQPGVLADDETLTKQLDDFPSTVSKEDQQCSFDDIFKHFNQQYYGVPIAYPNETFVVSDKV,soluble
18,ASNIYKIKEENKNEDICFIAGIGDTNGYGWGIAKELSKRNVKIIFGIWPPVYNIFMKNYKNGKFDNDMIIDKDKKMNILDMLPFDASFDTANDIDEETKNNKRYNMLQNYTIEDVANLIHQKYGKINMLVHSLANAKEVQKDLLNTSRKGYLDALSKSSYSLISLCKYFVNIMKPQSSIISLTYHASQKVVPGYGGGMSSAKAALESDTRVLAYHLGRNYNIRINTISAGPLKSRAATAINKLNNTYENNTNQNKNRNSHDVHNIMNNSGEKEEKKNSASQNYTFIDYAIEYSEKYAPLRQKLLSTDIGSVASFLLSRESRAITGQTIYVDNGLNIMFLPDDIYRNENE,soluble
19,MLQPILSISGKSGLFRLVSRGKNTLIVEALDTKRRTPTYPSDRVVSLGDISIYTIEDDVPLPEVMETIYRKNEGKQLDAPALTKDNDSLRAFFGEVLPEYDVDRVYPSDIRKIISWYNLLVDNGFTTFLSDKKPAEEETTEKE,not soluble
20,MGSDKIHHHHHHMRDIHILHDLIKKQCPQIHQKRLNSLMVATESLLDGNQLSLTQLGRNITGSVAAKHNIKRIDRLLGNYHLAQDKITIYQWHARYLCGANPMPIILVDWSDVREQLRIMTLRASISVQGRSVTLYERTFLFEDYNAPRSHNAFLAELANVLPQGCCPLIVTDAGYRNTWFREVERYGWFWLGRVRGDVSFMHHGQTTWHSNKSLYSKANSTAKYIGNVQLARKSPLSCHLHLF,not soluble
